Test results taken from the supplement of paper PMC10567573.

B1: ZNF263 (parent)
chain: FGGNPRFLSLHRAHLGEEAHKCLE
B2: WSB1 (parent)
chain: FSHDGLHVASLADDKMVRFWRIDE

Variants of: B1
Test: protein stability index of a GFP-peptide fusion (GPS, HEK-293T) (PSI 1-6); higher = more stable
Details: c terminus: a fixed tail appended
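Also: lentivirally expressed fusions sorted by FACS into six bins by GFP to DsRed ratio, PSI derived from sequencing read proportions per bin multiplied by bin number.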

Q: With FGGNQRFLSLHRAHLGEEAHKCLE [P5Q] as the variant, how does the protein stability index read?
A: Its protein stability index is 2.2.

Q: With FGGNSRFLSLHRAHLGEEAHKCLE [P5S] as the variant, how does the protein stability index read?
A: The protein stability index was 1.93.

Q: For FGGNDRFLSLHRAHLGEEAHKCLE [P5D], which protein stability index is on record?
A: The protein stability index was 1.35.

Q: Which protein stability index does the source give for FGGNNRFLSLHRAHLGEEAHKCLE [P5N] here?
A: The protein stability index was 3.16.

Q: For FGGNRRFLSLHRAHLGEEAHKCLE [P5R], which protein stability index is on record?
A: The protein stability index was 2.01.

Q: With FGGNTRFLSLHRAHLGEEAHKCLE [P5T] as the variant, how does the protein stability index read?
A: Its protein stability index is 2.17.

Q: For FGGNLRFLSLHRAHLGEEAHKCLE [P5L], which protein stability index is on record?
A: Its protein stability index is 1.69.

Q: With FGGNGRFLSLHRAHLGEEAHKCLE [P5G] as the variant, how does the protein stability index read?
A: Its protein stability index is 1.64.

Q: Which protein stability index does the source give for FGGNCRFLSLHRAHLGEEAHKCLE [P5C] here?
A: The protein stability index was 1.49.

Q: With FGGNHRFLSLHRAHLGEEAHKCLE [P5H] as the variant, how does the protein stability index read?
A: Its protein stability index is 2.17.

Q: For FGQNPRFLSLHRAHLGEEAHKCLE [G3Q], which protein stability index is on record?
A: The protein stability index was 1.53.

Q: Which protein stability index does the source give for FGCNPRFLSLHRAHLGEEAHKCLE [G3C] here?
A: Its protein stability index is 2.

Q: Which protein stability index does the source give for FGDNPRFLSLHRAHLGEEAHKCLE [G3D] here?
A: The protein stability index was 3.36.

Q: With FGYNPRFLSLHRAHLGEEAHKCLE [G3Y] as the variant, how does the protein stability index read?
A: Its protein stability index is 1.78.

Q: Which protein stability index does the source give for FGHNPRFLSLHRAHLGEEAHKCLE [G3H] here?
A: The protein stability index was 2.51.

Q: For FGNNPRFLSLHRAHLGEEAHKCLE [G3N], which protein stability index is on record?
A: Its protein stability index is 2.24.

Q: With FGKNPRFLSLHRAHLGEEAHKCLE [G3K] as the variant, how does the protein stability index read?
A: Its protein stability index is 2.36.

Q: Which protein stability index does the source give for FGMNPRFLSLHRAHLGEEAHKCLE [G3M] here?
A: Its protein stability index is 2.05.

Q: Which protein stability index does the source give for FGTNPRFLSLHRAHLGEEAHKCLE [G3T] here?
A: Its protein stability index is 2.17.

Q: Which protein stability index does the source give for FGENPRFLSLHRAHLGEEAHKCLE [G3E] here?
A: The protein stability index was 2.16.

Q: Which protein stability index does the source give for FGLNPRFLSLHRAHLGEEAHKCLE [G3L] here?
A: The protein stability index was 2.5.

Q: Which protein stability index does the source give for FGINPRFLSLHRAHLGEEAHKCLE [G3I] here?
A: Its protein stability index is 3.04.

Q: For FGRNPRFLSLHRAHLGEEAHKCLE [G3R], which protein stability index is on record?
A: Its protein stability index is 2.48.

Q: With FGFNPRFLSLHRAHLGEEAHKCLE [G3F] as the variant, how does the protein stability index read?
A: The protein stability index was 2.69.

Q: Which protein stability index does the source give for FGVNPRFLSLHRAHLGEEAHKCLE [G3V] here?
A: Its protein stability index is 2.83.

Q: For FGSNPRFLSLHRAHLGEEAHKCLE [G3S], which protein stability index is on record?
A: The protein stability index was 2.25.

Q: Which protein stability index does the source give for FGPNPRFLSLHRAHLGEEAHKCLE [G3P] here?
A: The protein stability index was 2.13.

Q: Which protein stability index does the source give for FGWNPRFLSLHRAHLGEEAHKCLE [G3W] here?
A: The protein stability index was 2.14.

Q: For FGANPRFLSLHRAHLGEEAHKCLE [G3A], which protein stability index is on record?
A: The protein stability index was 1.91.

Q: With FGGNPRHLSLHRAHLGEEAHKCLE [F7H] as the variant, how does the protein stability index read?
A: The protein stability index was 2.56.

Q: Which protein stability index does the source give for FGGNPRCLSLHRAHLGEEAHKCLE [F7C] here?
A: Its protein stability index is 2.31.

Q: Which protein stability index does the source give for FGGNPRGLSLHRAHLGEEAHKCLE [F7G] here?
A: Its protein stability index is 2.63.

Q: For FGGNPRTLSLHRAHLGEEAHKCLE [F7T], which protein stability index is on record?
A: Its protein stability index is 3.22.

Q: For FGGNPRNLSLHRAHLGEEAHKCLE [F7N], which protein stability index is on record?
A: Its protein stability index is 3.42.

Q: Which protein stability index does the source give for FGGNPRRLSLHRAHLGEEAHKCLE [F7R] here?
A: The protein stability index was 3.15.

Q: For FGGNPRVLSLHRAHLGEEAHKCLE [F7V], which protein stability index is on record?
A: Its protein stability index is 2.64.

Q: With FGGNPRPLSLHRAHLGEEAHKCLE [F7P] as the variant, how does the protein stability index read?
A: The protein stability index was 2.71.

Q: With FGGNPRMLSLHRAHLGEEAHKCLE [F7M] as the variant, how does the protein stability index read?
A: Its protein stability index is 2.42.

Q: For FGGNPRSLSLHRAHLGEEAHKCLE [F7S], which protein stability index is on record?
A: Its protein stability index is 3.57.

Q: With FGGNPRLLSLHRAHLGEEAHKCLE [F7L] as the variant, how does the protein stability index read?
A: The protein stability index was 2.56.

Q: For FGGNPRILSLHRAHLGEEAHKCLE [F7I], which protein stability index is on record?
A: The protein stability index was 2.19.

Q: For FGGNPRKLSLHRAHLGEEAHKCLE [F7K], which protein stability index is on record?
A: The protein stability index was 3.58.

Q: With FGGNPRDLSLHRAHLGEEAHKCLE [F7D] as the variant, how does the protein stability index read?
A: The protein stability index was 3.51.

Q: For FGGNPRYLSLHRAHLGEEAHKCLE [F7Y], which protein stability index is on record?
A: The protein stability index was 2.04.

Q: Which protein stability index does the source give for FGGNPRALSLHRAHLGEEAHKCLE [F7A] here?
A: Its protein stability index is 2.79.

Q: For FGGNPRQLSLHRAHLGEEAHKCLE [F7Q], which protein stability index is on record?
A: The protein stability index was 3.49.

Q: For FGGNPRELSLHRAHLGEEAHKCLE [F7E], which protein stability index is on record?
A: Its protein stability index is 4.

Variants of: B2
Test: as above
Details: c terminus: a fixed tail appended

Q: Which protein stability index does the source give for FSHDGLHVASLADDKMVRFWRKDE [I22K] here?
A: Its protein stability index is 2.66.

Q: With FSHDGLHVASNADDKMVRFWRIDE [L11N] as the variant, how does the protein stability index read?
A: Its protein stability index is 1.78.

Q: With FSHDGLHVASGADDKMVRFWRIDE [L11G] as the variant, how does the protein stability index read?
A: Its protein stability index is 1.71.

Q: For FSHDGLHVASRADDKMVRFWRIDE [L11R], which protein stability index is on record?
A: Its protein stability index is 1.66.

Q: With FSHDGLHVASLADDKMVRFPRIDE [W20P] as the variant, how does the protein stability index read?
A: Its protein stability index is 2.6.

Q: For FSHDGLHVASLADDKPVRFWRIDE [M16P], which protein stability index is on record?
A: Its protein stability index is 2.05.

Q: With FSHDGLHVASLADDKSVRFWRIDE [M16S] as the variant, how does the protein stability index read?
A: The protein stability index was 2.12.

Q: For FSHDGLHVASLADDKKVRFWRIDE [M16K], which protein stability index is on record?
A: The protein stability index was 2.23.

Q: With FSVDGLHVASLADDKMVRFWRIDE [H3V] as the variant, how does the protein stability index read?
A: The protein stability index was 1.11.

Q: For FSHDGLHVASLKDDKMVRFWRIDE [A12K], which protein stability index is on record?
A: Its protein stability index is 1.71.

Q: Which protein stability index does the source give for FSHDGLHVASLYDDKMVRFWRIDE [A12Y] here?
A: The protein stability index was 1.66.

Q: Which protein stability index does the source give for FSHDGLHVASLCDDKMVRFWRIDE [A12C] here?
A: Its protein stability index is 1.95.

Q: With FSHDGLHVASLWDDKMVRFWRIDE [A12W] as the variant, how does the protein stability index read?
A: Its protein stability index is 1.23.

Q: With FSHDGLHWASLADDKMVRFWRIDE [V8W] as the variant, how does the protein stability index read?
A: Its protein stability index is 2.92.

Q: For FSHDGLHQASLADDKMVRFWRIDE [V8Q], which protein stability index is on record?
A: The protein stability index was 3.68.

Q: With FSHDGLDVASLADDKMVRFWRIDE [H7D] as the variant, how does the protein stability index read?
A: The protein stability index was 3.61.

Q: With FSHDGLCVASLADDKMVRFWRIDE [H7C] as the variant, how does the protein stability index read?
A: The protein stability index was 1.86.

Q: Which protein stability index does the source give for FSHDGLVVASLADDKMVRFWRIDE [H7V] here?
A: Its protein stability index is 2.42.

Q: With FSHDGLGVASLADDKMVRFWRIDE [H7G] as the variant, how does the protein stability index read?
A: Its protein stability index is 1.4.

Q: Which protein stability index does the source give for FSHDGLHVISLADDKMVRFWRIDE [A9I] here?
A: The protein stability index was 2.66.

Q: With FSHDGLHVLSLADDKMVRFWRIDE [A9L] as the variant, how does the protein stability index read?
A: Its protein stability index is 2.62.

Q: With FSHDGLHVVSLADDKMVRFWRIDE [A9V] as the variant, how does the protein stability index read?
A: Its protein stability index is 2.55.

Q: With FSHDGLHVAALADDKMVRFWRIDE [S10A] as the variant, how does the protein stability index read?
A: The protein stability index was 1.74.

Q: For FSHDGLHVATLADDKMVRFWRIDE [S10T], which protein stability index is on record?
A: The protein stability index was 1.64.

Q: With FSHDGLHVASLAADKMVRFWRIDE [D13A] as the variant, how does the protein stability index read?
A: Its protein stability index is 1.02.

Q: With FSHDYLHVASLADDKMVRFWRIDE [G5Y] as the variant, how does the protein stability index read?
A: The protein stability index was 1.27.

Q: Which protein stability index does the source give for FSHDGLHVASLADDKMVRSWRIDE [F19S] here?
A: Its protein stability index is 2.42.

Q: For FSHDGLHVASLADDKMVRAWRIDE [F19A], which protein stability index is on record?
A: The protein stability index was 2.27.

Q: Which protein stability index does the source give for FSHDGLHVASLADDKMVRKWRIDE [F19K] here?
A: The protein stability index was 2.38.

Q: With FSHDGLHVASLADDKMVRFWRIDM [E24M] as the variant, how does the protein stability index read?
A: Its protein stability index is 2.05.

Q: Which protein stability index does the source give for FSHDGLHVASLADDKMVRFWRIDC [E24C] here?
A: The protein stability index was 4.37.

Q: Which protein stability index does the source give for FSHLGLHVASLADDKMVRFWRIDE [D4L] here?
A: Its protein stability index is 1.53.

Q: For FSHPGLHVASLADDKMVRFWRIDE [D4P], which protein stability index is on record?
A: Its protein stability index is 2.

Q: Which protein stability index does the source give for FSHDGLHVASLADDKMRRFWRIDE [V17R] here?
A: Its protein stability index is 2.03.

Q: For FSHDGLHVASLADDKMKRFWRIDE [V17K], which protein stability index is on record?
A: Its protein stability index is 1.85.

Q: With FSHDGLHVASLADDKMLRFWRIDE [V17L] as the variant, how does the protein stability index read?
A: The protein stability index was 1.27.

Q: With FSHDGTHVASLADDKMVRFWRIDE [L6T] as the variant, how does the protein stability index read?
A: Its protein stability index is 1.67.

Q: For FSHDGCHVASLADDKMVRFWRIDE [L6C], which protein stability index is on record?
A: Its protein stability index is 1.55.

Q: With FSHDGLHVASLADDKMVRFWQIDE [R21Q] as the variant, how does the protein stability index read?
A: The protein stability index was 1.44.

Q: With FSHDGLHVASLADDKMVRFWHIDE [R21H] as the variant, how does the protein stability index read?
A: The protein stability index was 2.42.

Q: Which protein stability index does the source give for FSHDGLHVASLADDKMVRFWPIDE [R21P] here?
A: Its protein stability index is 2.35.

Q: Which protein stability index does the source give for FSHDGLHVASLADDKMVRFWNIDE [R21N] here?
A: Its protein stability index is 2.15.

Q: Which protein stability index does the source give for FSHDGLHVASLADDKMVIFWRIDE [R18I] here?
A: Its protein stability index is 2.23.

Q: With FPHDGLHVASLADDKMVRFWRIDE [S2P] as the variant, how does the protein stability index read?
A: Its protein stability index is 1.69.

Q: With FSHDGLHVASLADNKMVRFWRIDE [D14N] as the variant, how does the protein stability index read?
A: Its protein stability index is 2.03.

Q: With FSHDGLHVASLADDKMVRFWRILE [D23L] as the variant, how does the protein stability index read?
A: The protein stability index was 2.35.

Q: Which protein stability index does the source give for ISHDGLHVASLADDKMVRFWRIDE [F1I] here?
A: Its protein stability index is 2.89.
